Test results reported in paper PMC3776778, “A Fully Human Inhibitory Monoclonal Antibody to the Wnt Receptor RYK” (PLoS ONE, 2013).

Target: T1, recombinant mouse Wnt3a protein (mouse, UniProt P27467 19-352)
T1 construct: recombinant mouse Wnt3a (R&D Systems); the bought protein is probably the mature secreted form (surmise); also called recombinant Wnt3a protein; source: bought: R&D Systems
Assay: ELISA; competitive ELISA, third round of a screen of a human scFv phage display library: phage clones against recombinant mouse Wnt3a for binding to purified hRYKWD.Fc
Conditions: both partners purified

T1 sequence (P27467 19-352): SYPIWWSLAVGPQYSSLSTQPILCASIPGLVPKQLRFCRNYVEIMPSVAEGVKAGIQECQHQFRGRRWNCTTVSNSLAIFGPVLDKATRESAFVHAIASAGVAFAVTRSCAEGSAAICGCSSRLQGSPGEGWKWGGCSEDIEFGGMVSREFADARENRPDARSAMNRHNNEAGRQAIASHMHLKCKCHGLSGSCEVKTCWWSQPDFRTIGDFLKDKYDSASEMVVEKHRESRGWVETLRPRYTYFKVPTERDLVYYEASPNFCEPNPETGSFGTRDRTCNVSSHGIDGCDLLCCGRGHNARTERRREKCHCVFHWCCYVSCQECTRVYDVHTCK

B1: hRYKWD.Fc (WIF domain of human RYK fused to the Fc.FLAG region of human IgG1) (Fc fusion, UniProt P34925 66-194, looked up)
chain: LYLSEDEVRRLIGLDAELYYVRNDLISHYALSFSLLVPSETNFLHFTWHAKSKVEYKLGFQVDNVLAMDMPQVNISVQGEVPRTLSVFRVELSCTGKVDSEVMILMQLNLTVNSSKNFTVLNFKRRKMC
notes: WIF domain of human RYK, lacking the metalloprotease cleavage site; also called hRYKWD.Fc.FLAG; human RYK WIF domain-only fusion protein
Question: Does B1 bind?
Answer: binds
